Source: US12077566B2, “Mutants of recombinant immunoregulatory protein of Ganoderma lucidum and applications thereof” (priority 2017, dated 2024)
Substitutions are numbered along the chain they refer to. Numbers in names are those of the source. Entries after “also recorded” stand apart in the source; their conditions may differ.

B1: rLZ-8 (K16A/K41A): alanine mutant of rLZ-8 at K16 and K41 (protein)
chain: MSDTALIFRLAWDVKALSFDYTPNWGRGNPNNFIDTVTFPAVLTDKAYTYRVAVSGRNLGVKPSYAVESDGSQKVNFLEYNSGYGIADTNTIQVFVVDPDTNNDFIIAQWN
B2: rLZ-8 (D45A): alanine mutant of rLZ-8 at D45 (protein)
chain: B1 chain with A16K, A41K, D45A
B3: rLZ-8 (R9A): alanine mutant of rLZ-8 at R9 (protein)
chain: B1 chain with R9A, A16K, A41K
B4: FIP-fve: fungai immunomodulatory protein from flammulina velutipes (protein)
chain: SATSLTFQLAYLVKKIDFDYTPNWGRGTPSSYIDNLTFPKVLTDKKYSYRVVVNGSDLGVESNFAVTPSGGQTINFLQYNKGYGVADTKTIQVFVVIPDTGNSEEYIIAEWKKT
B5: rLZ-8 (K41D/K46E/K74E): rLZ-8 mutant K41D, K46E and K74E (protein)
chain: B1 chain with A16K, A41D, K46E, K74E
B6: rLZ-8 (D20H/D70K): rLZ-8 mutant after surface potential optimization, D20H and D70K (protein)
chain: B1 chain with A16K, D20H, A41K, D70K
B7: rLZ-8 (D20H): rLZ-8 mutant after surface potential optimization, D20H (protein)
chain: B1 chain with A16K, D20H, A41K
B8: rLZ-8 (L17K): rLZ-8 mutant after surface potential optimization, L17K (protein)
chain: B1 chain with A16K, L17K, A41K
B9: rLZ-8 (K46E/K74E): rLZ-8 mutant K46E and K74E (protein)
chain: B1 chain with A16K, A41K, K46E, K74E
B10: rLZ-8 (K46E): rLZ-8 mutant K46E (protein)
chain: B1 chain with A16K, A41K, K46E
B11: rLZ-8 (M1A/R9A/D100A): rLZ-8 mutant named only in Tables 2, 3, 7 and 8 (protein)
chain: B1 chain with M1A, R9A, A16K, A41K, D100A

Legend:
[1] = system: human breast cancer MCF7 cells; experiment: Orthotopic transplantation tumor model of human breast cancer MCF7 cells; type: in vivo, BALB/c nude mice; conditions: after administration for 28 days
Description: One day before the experiment, 0.5 mg of 17ß estradiol sustained release tablet is embedded below the neck skin of the BALB/c nude mice.

[2] = system: liver cancer, lung cancer, breast cancer and colon cancer; experiment: Animal pharmacodynamic experiments of liver, lung, breast and colon cancer (summary statement); type: in vivo, mice; conditions: breast and colon cancer models together
[3] = system: human colon cancer SW480 cells; experiment: Transplantation tumor model of human colon cancer SW480 cells; type: in vivo, BALB/c nude mice; conditions: after administration for 28 days
Description: The RPMI1640 medium containing 10% fetal bovine serum is selected for the human colon cancer SW480 cells, and then is placed in the CO2 constant-temperature incubator at 37° C. for culturing. The SW480 cells at the logarithmic phase are digested by pancreatin and thereafter washed with serum-free RPMI1640 medium; 2×10^6 cells are inoculated below the back skin of the BALB/c nude mice; after the tumor blocks for observation are formed and have the diameter larger than 0.5 cm, the mice are divided into groups randomly; and the transplantation tumor model of human colon cancer SW480 cells are constructed in the BALB/c nude mice.

[4] = target: EGFR extracellular domain (Homo sapiens, UniProt P00533); experiment: Affinity test by surface plasmon resonance (Biacore T200, CM5 chip); type: binding; conditions: for Dissociation rate constant (koff) / Ka: EGFR extracellular domain coupled on CM5 chip, analyte 4-256 nM; for Affinity with the EGFR (in words): compared with rLZ-8
Description: The Biacore™ T200 equipment (a Surface Plasmon Resonance from GE Company) is selected. Through the surface plasma resonance technology, the affinity of the rLZ-8 and the mutants thereof to the EGFR extracellular domain is tested. The CM5 chip is adopted to serve as the affinity test chip.
The EGFR extracellular domain (with an amino acid sequence of 25-645) serves as the ligand for coupling; 1 mg EGFR freeze-dried powders are diluted with HEPES buffer solution to a concentration of 400 μg/mL and set aside. Three 1.5 mL EP tubes are prepared; 10 μL ligand are respectively added into the three tubes, then 90 μL 10 mM sodium acetate with different pH values of 4.5, 5.0 and 5.5 are respectively added into the tubes and are mixed completely and uniformly; and a final concentration of the ligand is 40 μg/mL. Moreover, 200 μL 50 mM sodium acetate is added into another 1.5 mL EP tube.
The ligand has a molecular weight of 70 kDa, the analyte (rLZ-8) has a molecular weight of 12.4 kDa. In theory, one rLZ-8 […] can bind with one EGFR, and thus the stoichiometric ratio Sm is equal to 1. Through the following equations, the coupling amount RL of the ligand is calculated.
Through the experimental experience, the optimal reagent coupling amount is set to be 3*RL, and the coupling amount is set to be 1700 RU. The EGFR extracellular domain is successively coupled on the CM5 chip.
In the affinity test, in order to eliminate the influence of different concentrations on the affinity, every of the rLZ-8 and the mutants thereof are tested with eight concentrations, wherein: seven concentrations are gradient concentrations, and the last one is the test reference concentration.

[5] = system: human lung cancer A549 cells; experiment: Orthotopic transplantation tumor model of human lung cancer A549 cells; conditions: after administration for 28 days;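 further: test animals were NOG mice aged 6-8 weeks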
Description: The human lung cancer A549 cell strain is selected. The NOG Mice of 6-8 weeks old are selected.
The DMEM containing 10% fetal bovine serum is selected for the human lung cancer A549 cells, and then is placed in the CO2 constant-temperature incubator at 37° C. for culturing. The A549 cells at the logarithmic phase are digested by pancreatin and thereafter washed with serum-free DMEM; the living cell concentration is adjusted to 1×10^8 cells per milliliter; 20 μL cell suspension is taken and inoculated at the lung of the NOG mice; two weeks later, the orthotopic transplantation tumor model of A549 lung cancer cells is constructed in the NOG mice.

[6] = system: human liver cancer Hep G2 cells; conditions: for Tumor inhibitory effect (in words): after administration for 28 days; for Mice weight after experiment: mouse, in vivo; for Mice tumor weight after experiment / Survival rate of mice after experiment: qd×28 i.v., rLZ-8 and mutants 0.5 mg/kg, sorafenib 50 mg/kg; for Survival rate of mice after experiment: 10 mice per group
From the text: Two weeks later, the model mice are divided into groups randomly, and each group has 10 mice. The administration method is caudal vein injection, once a day, for consecutive 28 days (qd×28, i.v.). […] During the experiment, if the mouse dies, the dead mouse is weighted on the same day, and the tumor tissue is taken out to be weighted. For the living mouse after administration for 28 days, the mouse is killed, and then the tumor tissue is taken out to be weighted. The death time and death number of the mice in each group are recorded in detail; the survival conditions of the mice of the experimental groups and the control groups are analyzed, and the survival rate is calculated, wherein the survival rate is obtained through subtracting the death number of the mice from the total number of the mice, and then dividing the difference by the total number of the mice.

| Molecule | Mice tumor weight after experiment [1] [g] | Tumor inhibitory effect (in words) [1] | Tumor inhibitory effect (in words) [2] | Mice tumor weight after experiment [3] [g] | Tumor inhibitory effect (in words) [3] | Dissociation rate constant (koff) [4] [s⁻¹] | Ka [4] [M⁻¹ s⁻¹] | Affinity with the EGFR (in words) [4] | Affinity with the EGFR (in words) ([4]; listed as rLZ-8 (K16A/K41 A)) | Mice survival rate after experiment [5] [%] | Mice tumor weight after experiment [5] [g] | Mice weight after experiment [5] [g] | Tumor inhibitory effect (in words) [5] | Tumor inhibitory effect (in words) [6] | Mice weight after experiment [6] [g] | Mice tumor weight after experiment [6] [g] | Survival rate of mice after experiment [6] [%] |
| --- | --- | --- | --- | --- | --- | --- | --- | --- | --- | --- | --- | --- | --- | --- | --- | --- | --- |
| B1 | 1.12 ± 0.37 | nearly no tumor inhibitory effect | nearly no tumor inhibitory effect | 3.12 ± 0.47 | nearly no tumor inhibitory effect | 0.000273 | 220 | obviously decreased by 2-3 orders of magnitudes | obviously decreased affinity | 20 | 1.26 ± 0.77 | 17.4 ± 1.5 | nearly no tumor inhibitory effect | nearly no tumor inhibitory effect | 17.2 ± 1.3 | 1.46 ± 0.93 | 20 |
| B2 | 1.08 ± 0.28 | nearly no tumor inhibitory effect | nearly no tumor inhibitory effect | 3.26 ± 0.56 | nearly no tumor inhibitory effect |  | 1200 | obviously decreased by 2-3 orders of magnitudes; also recorded: obviously decreased affinity |  | 30 | 1.28 ± 0.68 | 17.5 ± 1.5 | nearly no tumor inhibitory effect | nearly no tumor inhibitory effect | 17.4 ± 1.6 | 1.44 ± 0.80 | 50 |
| B3 | 0.79 ± 0.31 |  |  | 1.89 ± 0.37 |  | 0.000528 | 61200 | no obvious change |  | 50 | 0.69 ± 0.53 | 20.0 ± 1.4 |  |  | 19.3 ± 1.3 | 0.65 ± 0.43 | 50 |
| B4 |  |  |  |  |  |  |  | does not have the capacity of binding with the EGFR |  |  |  |  |  |  |  |  |  |
| B5 | 1.10 ± 0.42 |  |  | 3.10 ± 0.48 |  |  | 35300 | decreased |  | 40 | 1.20 ± 0.62 | 19.1 ± 1.3 |  |  | 20.0 ± 1.2 | 1.25 ± 0.53 | 40 |
| B6 | 0.60 ± 0.27 |  |  | 1.60 ± 0.29 |  |  |  |  |  | 70 | 0.49 ± 0.28 | 20.6 ± 1.7 |  |  | 20.1 ± 1.5 | 0.51 ± 0.27 | 70 |
| B7 | 0.61 ± 0.22 |  |  | 1.54 ± 0.45 |  | 0.000432 | 58700 |  |  | 70 | 0.51 ± 0.32 | 19.9 ± 1.7 |  |  | 19.7 ± 1.7 | 0.60 ± 0.31 | 60 |
| B8 | 0.63 ± 0.31 |  |  | 1.62 ± 0.41 |  | 7.56e-05 | 10100 |  |  | 70 | 0.53 ± 0.30 |  |  |  | 20.1 ± 1.4 | 0.58 ± 0.33 | 70 |
| B9 | 0.73 ± 0.24 |  |  | 2.23 ± 0.54 |  | 0.000614 | 65700 |  |  | 50 | 0.63 ± 0.41 | 20.0 ± 1.5 |  |  | 20.1 ± 1.7 | 0.69 ± 0.42 | 60 |
| B10 | 0.75 ± 0.32 |  |  | 2.15 ± 0.62 |  |  |  |  |  | 40 | 0.65 ± 0.31 | 20.4 ± 1.6 |  |  | 19.4 ± 1.8 | 0.75 ± 0.44 | 60 |
| B11 | 0.77 ± 0.32 |  |  | 1.97 ± 0.35 |  |  |  |  |  |  |  |  |  |  |  | 0.78 ± 0.67 | 60 |
